Source: article PMC3683571 (2013)
Where no end group is shown, it is not given here.

Target: PSMA (Homo sapiens, UniProt Q04609)
Assay: electrochemical impedance spectroscopy

## SECVEVFQNSCDW (cysteine pairing not given here; also: displayed on M13 phage) [phage-2 (phage-displayed peptide 2)]
  Kd: 54 nM
